In patent US20210380679A1 (INHIBRX BIOSCIENCES, published 2021):

T1: human DLL3 (Delta-like ligand 3) (human, UniProt Q9NYJ7 27-618)
T1 construct: endogenous on SHP-77 cells; also called cell-surface DLL3
T1 sequence: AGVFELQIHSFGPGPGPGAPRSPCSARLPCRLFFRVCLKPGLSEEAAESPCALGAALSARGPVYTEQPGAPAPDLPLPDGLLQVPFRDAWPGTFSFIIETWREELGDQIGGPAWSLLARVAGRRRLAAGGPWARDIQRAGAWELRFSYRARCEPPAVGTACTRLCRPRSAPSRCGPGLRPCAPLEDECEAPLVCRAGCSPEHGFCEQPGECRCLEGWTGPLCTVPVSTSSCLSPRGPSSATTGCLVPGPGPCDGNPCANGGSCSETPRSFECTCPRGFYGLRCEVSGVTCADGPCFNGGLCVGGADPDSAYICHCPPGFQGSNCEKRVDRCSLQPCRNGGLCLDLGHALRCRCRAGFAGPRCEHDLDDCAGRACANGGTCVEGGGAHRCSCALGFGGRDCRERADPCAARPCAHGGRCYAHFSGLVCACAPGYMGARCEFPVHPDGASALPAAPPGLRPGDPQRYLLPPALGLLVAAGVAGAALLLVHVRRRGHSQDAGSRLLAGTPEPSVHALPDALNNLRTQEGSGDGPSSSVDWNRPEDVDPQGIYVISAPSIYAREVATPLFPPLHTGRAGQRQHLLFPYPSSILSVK


Tests used:
[1] = target: T1, human DLL3 (Delta-like ligand 3); assay: flow cytometry, construct titrated on SHP-77 cells (DLL3 positive), fluorophore-conjugated anti-human IgG Fc secondary
Protocol: (§1) Binding of exemplary multispecific polypeptide constructs of the disclosure containing an antigen-binding domain directed against DLL3 to CD3 on the surface of primary T cells and to DLL3 expressing cells (SHP-77) was assessed by flow cytometry. […] These binding assays were conducted by flow cytometry, wherein bound constructs were detected using a fluorophore-conjugated anti-human IgG Fc secondary antibody.

[2] = target: T2, CD3 on the surface of T cells (human, UniProt P07766 23-207); assay: flow cytometry, construct titrated on isolated primary T cells, fluorophore-conjugated anti-human IgG Fc secondary
T2 construct: whole, on cells; multi-chain complex; also called CD3 epsilon
T2 sequence (P07766 23-207): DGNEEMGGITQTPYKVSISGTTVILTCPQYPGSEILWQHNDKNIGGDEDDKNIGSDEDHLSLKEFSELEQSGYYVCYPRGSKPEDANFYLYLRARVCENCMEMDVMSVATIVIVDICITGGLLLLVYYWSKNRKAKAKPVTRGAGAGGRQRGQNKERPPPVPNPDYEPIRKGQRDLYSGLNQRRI
Protocol: as §1

[3] = target: T2, CD3 on the surface of T cells; assay: flow cytometry, primary human T cells
Protocol: (§2) Binding of exemplary DLL3-targeting constrained CD3 engaging constructs of the disclosure, referred to herein as cx4720, cx3715, cx4422, cx3708, cx4052, cx3985, cx4059, cx4087, cx4088, cx4895, cx3991, cx3711, cx4887, cx4896, cx4899, cx4406, cx3707, cx3710, cx4888 and cx4890, to CD3 on the surface of primary T cells was assessed via flow cytometry (SONY SA3800 spectral analyzer) using T-cell that were negatively enriched from PBMCs isolated from healthy human donor leukopaks. Representative DLL3-targeting constrained CD3 engaging constructs were assessed for binding to T cells and DLL3 expressing cells (SHP-77). Bound cx4720, cx3715, cx4422, cx3708, cx4052, cx3985, cx4059, cx4087, cx4088, cx4895, cx3991, cx3711, cx4887, cx4896, cx4899, cx4406, cx3707, cx3710, cx4888 and cx4890 was detected with fluorophore-conjugated secondary antibodies specific for the human Fc and binding was measured by flow cytometry. Cells incubated with secondary antibody only served as negative controls.
(§3) Table E4 summarizes the affinity of exemplary molecules for DLL3 or CD3, as determined from flow cytometry, in these studies.

[4] = target: T1, human DLL3 (Delta-like ligand 3); assay: flow cytometry, SHP-77 cells
Protocol: as §2, §3

Row | Binder | binding result [1] | binding result [2] | Kd [3] | Kd [4]
1 | cx5352 (bispecific antibody) chain 1: EVQLVESGGGEVQPGGSLRLSCAASGSIFSINAMGWYRQAPGKQRELVAGFTGDTNTIYAESVKGRFTISRDNAKNTVYLQMSSLRAEDTAVYYCAADVQLFSRDYEFYWGQGTLVTVKPDKTHTCPPCPAPGGPSVFLFPPKPKDTLMISRTPEVTCVVVDVSHEDPEVKFNWYVDGVEVHNAKTKPREEQYNSTYRVVSVLTVLHQDWLNGKEYKCKVSNKALPAPIEKTISKAKGQPREPQVYTLPPCRDELTKNQVSLWCLVKGFYPSDIAVEWESNGQPENNYKTTPPVLDSDGSFFLYSKLTVDKSRWQQGNVFSCSVMHEALHNHYTQKSLSLSPTGGGGGSGGGGGSGGGGGSEVQLVESGGGLVQPGGSLRLSCAASGFTFNTYAMNWVRQAPGKCLEWVARIRSKYNNYATYYADSVKGRFTISRDDAKNTLYLQMSSLRAEDTAVYYCVRHGNFGNSYVSWFAYWGQGTLVTVKPEVQLVESGGGEVQPGGSLRLSCGPSEIITSDKSMGWVRQAPGKQRNLVAGISNVGSTNYAQSVKGRFTISRDNAKNTVYLQMSSLRAEDTAVYYCYARDFENEYWGQGTLVTVKP chain 2: DKTHTCPPCPAPGGPSVFLFPPKPKDTLMISRTPEVTCVVVDVSHEDPEVKFNWYVDGVEVHNAKTKPREEQYNSTYRVVSVLTVLHQDWLNGKEYKCKVSNKALPAPIEKTISKAKGQPREPQVCTLPPSRDELTKNQVSLSCAVKGFYPSDIAVEWESNGQPENNYKTTPPVLDSDGSFFLVSKLTVDKSRWQQGNVFSCSVMHEALHNRYTQKSLSLSPTGGGGGSGGGGGSGGGGGSQAVVTQEPSLTVSPGGTVTLTCGSSTGAVTTSNYANWVQQKPGQAFRGLIGGTNKRAPGVPARFSGSLLGGKAALTISGAQPEDEADYYCALWYSNHWVFGCGTKLEIKEVQLLESGGGEVQPGGSLRLSCAASGFSFSINAMGWYRQAPGKRREFVAAIESGRNTVYAESVKGRFTISRDNAKNTVYLQMSSLRAEDTAVYYCGLLKGNRVVSPSVAYWGQGTLVTVKP | binds | no binding (tested: about 67 nM) |  | 
2 | cx4890 (bispecific antibody) chain 1: EVQLVQSGGGLVQAGGSLRLSCAASGSILSINAMGWYRQPPGKQREMVAGFTGDGNTIYADSVKGRFTISRDNAKNTVYLQMNSLKPEDTAVYYCAADVQLFSRDYEFYWGQGTQVTVKPDKTHTCPPCPAPGGPSVFLFPPKPKDTLMISRTPEVTCVVVDVSHEDPEVKFNWYVDGVEVHNAKTKPREEQYNSTYRVVSVLTVLHQDWLNGKEYKCKVSNKALPAPIEKTISKAKGQPREPQVYTLPPCRDELTKNQVSLWCLVKGFYPSDIAVEWESNGQPENNYKTTPPVLDSDGSFFLYSKLTVDKSRWQQGNVFSCSVMHEALHNHYTQKSLSLSPTGGGGGSGGGGGSGGGGGSEVQLVESGGGLVQPGGSLRLSCAASGFTFNTYAMNWVRQAPGKCLEWVARIRSKYNNYATYYADSVKGRFTISRDDAKNTLYLQMSSLRAEDTAVYYCVRHGNFGNSYVSWFAYWGQGTLVTVKPEVQLQESGGGLVQAGGSLRLSCGPSEIITSDKSVGWWRQAPGKQRNLVAGISNVGSTNYAQSVKGRFTISRDNAKNTLFLQMNSLKPEDTAVYYCYARDFENEYWGRGTQVTVKP chain 2: DKTHTCPPCPAPGGPSVFLFPPKPKDTLMISRTPEVTCVVVDVSHEDPEVKFNWYVDGVEVHNAKTKPREEQYNSTYRVVSVLTVLHQDWLNGKEYKCKVSNKALPAPIEKTISKAKGQPREPQVCTLPPSRDELTKNQVSLSCAVKGFYPSDIAVEWESNGQPENNYKTTPPVLDSDGSFFLVSKLTVDKSRWQQGNVFSCSVMHEALHNRYTQKSLSLSPTGGGGGSGGGGGSGGGGGSQAVVTQEPSLTVSPGGTVTLTCGSSTGAVTTSNYANWVQQKPGQAFRGLIGGTNKRAPGVPARFSGSLLGGKAALTISGAQPEDEADYYCALWYSNHWVFGCGTKLEIK |  |  | > 200000 pM | 62 pM
3 | cx4895 (bispecific antibody, as printed the same parts as cx4720) chain 1: EVQLVQSGGGLVQAGGSLRLSCAASGSILSINAMGWYRQPPGKQREMVAGFTGDGNTIYADSVKGRFTISRDNAKNTVYLQMNSLKPEDTAVYYCAADVQLFSRDYEFYWGQGTQVTVKPDKTHTCPPCPAPGGPSVFLFPPKPKDTLMISRTPEVTCVVVDVSHEDPEVKFNWYVDGVEVHNAKTKPREEQYNSTYRVVSVLTVLHQDWLNGKEYKCKVSNKALPAPIEKTISKAKGQPREPQVYTLPPCRDELTKNQVSLWCLVKGFYPSDIAVEWESNGQPENNYKTTPPVLDSDGSFFLYSKLTVDKSRWQQGNVFSCSVMHEALHNHYTQKSLSLSPTGGGGGSGGGGGSGGGGGSEVQLVESGGGLVQPGGSLRLSCAASGFTFNTYAMNWVRQAPGKCLEWVARIRSKYNNYATYYADSVKGRFTISRDDAKNTLYLQMSSLRAEDTAVYYCVRHGNFGNSYVSWFAYWGQGTLVTVKPEVQLQESGGGLVQAGGSLRLSCGPSEIITSDKSVGWWRQAPGKQRNLVAGISNVGSTNYAQSVKGRFTISRDNAKNTLFLQMNSLKPEDTAVYYCYARDFENEYWGRGTQVTVKP chain 2: DKTHTCPPCPAPGGPSVFLFPPKPKDTLMISRTPEVTCVVVDVSHEDPEVKFNWYVDGVEVHNAKTKPREEQYNSTYRVVSVLTVLHQDWLNGKEYKCKVSNKALPAPIEKTISKAKGQPREPQVCTLPPSRDELTKNQVSLSCAVKGFYPSDIAVEWESNGQPENNYKTTPPVLDSDGSFFLVSKLTVDKSRWQQGNVFSCSVMHEALHNRYTQKSLSLSPTGGGGGSGGGGGSGGGGGSQAVVTQEPSLTVSPGGTVTLTCGSSTGAVTTSNYANWVQQKPGQAFRGLIGGTNKRAPGVPARFSGSLLGGKAALTISGAQPEDEADYYCALWYSNHWVFGCGTKLEIKEVQLLESGGGEVQPGGSLRLSCAASGFSFSINAMGWYRQAPGKRREFVAAIESGRNTVYAESVKGRFTISRDNAKNTVYLQMSSLRAEDTAVYYCGLLKGNRVVSPSVAYWGQGTLVTVKP |  |  | > 200000 pM | 65 pM
4 | cx4899 (bispecific antibody) chain 1: EVQLVESGGGEVQPGGSLRLSCGPSEIITSDKSVGWWRQAPGKQRNLVAGISNVGSTNYAQSVKGRFTISRDNAKNTLYLQMSSLRAEDTAVYYCYARDFENEYWGQGTLVTVKPDKTHTCPPCPAPGGPSVFLFPPKPKDTLMISRTPEVTCVVVDVSHEDPEVKFNWYVDGVEVHNAKTKPREEQYNSTYRVVSVLTVLHQDWLNGKEYKCKVSNKALPAPIEKTISKAKGQPREPQVYTLPPCRDELTKNQVSLWCLVKGFYPSDIAVEWESNGQPENNYKTTPPVLDSDGSFFLYSKLTVDKSRWQQGNVFSCSVMHEALHNHYTQKSLSLSPTGGGGGSGGGGGSGGGGGSEVQLVESGGGLVQPGGSLRLSCAASGFTFNTYAMNWVRQAPGKCLEWVARIRSKYNNYATYYADSVKGRFTISRDDAKNTLYLQMSSLRAEDTAVYYCVRHGNFGNSYVSWFAYWGQGTLVTVKPEVQLVESGGGEVQPGGSLRLSCAASGSIFSINAMGWYRQAPGKQRELVAGFTGDTNTIYAESVKGRFTISRDNAKNTVYLQMSSLRAEDTAVYYCAADVQLFSRDYEFYWGQGTLVTVKP chain 2: DKTHTCPPCPAPGGPSVFLFPPKPKDTLMISRTPEVTCVVVDVSHEDPEVKFNWYVDGVEVHNAKTKPREEQYNSTYRVVSVLTVLHQDWLNGKEYKCKVSNKALPAPIEKTISKAKGQPREPQVCTLPPSRDELTKNQVSLSCAVKGFYPSDIAVEWESNGQPENNYKTTPPVLDSDGSFFLVSKLTVDKSRWQQGNVFSCSVMHEALHNRYTQKSLSLSPTGGGGGSGGGGGSGGGGGSQAVVTQEPSLTVSPGGTVTLTCGSSTGAVTTSNYANWVQQKPGQAFRGLIGGTNKRAPGVPARFSGSLLGGKAALTISGAQPEDEADYYCALWYSNHWVFGCGTKLEIK |  |  | > 200000 pM | 397 pM
